Source: the supplement of paper PMC10724198

Tests used:
Saccharomyces cerevisiae [1] = assay: protein stability index of tFT-peptide fusion in wild type (PSI (0-1 scale)); higher = more stable (slower turnover); details: genetic background: wild type
Description: (§1)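 MPS profiling in S. cerevisiae of two library types built from selected 12-aa C-degron peptides (IN1, IN2, LN1, LN3, VN2, R1-R5, W1-W3, Atg1 and Rpa12 C-termini): saturation mutagenesis libraries and C-terminal +1 capping libraries (13 aa). Each peptide is fused to the C-terminus of a sfGFP-mCherry timer, after a GGGS linker. Cells are FACS-sorted into 8 mCherry/sfGFP bins and sequenced. PSI runs from 0 (unstable) to 1 (stable), measured once in wild type and in the das1Δ or doa10Δ background.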

Saccharomyces cerevisiae [2] = assay: protein stability index of tFT-peptide fusion in deletion strain of DAS1 (PSI (0-1 scale)); higher = more stable (slower turnover)
Description: as §1
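Throughout, for protein stability index of tFT-peptide fusion in deletion strain of DAS1: PSI is a weighted mean of each variant's read distribution over the sorted stability bins, computed only for variants having over 10 reads in total.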
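Throughout, for protein stability index of tFT-peptide fusion in wild type: PSI derived as read-weighted mean over the 8 sorting bins, only variants exceeding 10 total reads kept, mCherry placed adjacent to the peptide and sfGFP distal.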

Row | Sequence | protein stability index (Saccharomyces cerevisiae [1]) | protein stability index (Saccharomyces cerevisiae [2])
1 | AKHKKGQKQKIN | 0.11 | 0.829
2 | ARCRVGLWRGAS | 0.597 | 0.706
3 | ARQRVGLWRGAS | 0.6 | 0.694
4 | ARWEVGLWRGAS | 0.458 | 0.648
5 | ARWRCGLWRGAS | 0.574 | 0.695
6 | ARWRNGLWRGAS | 0.658 | 0.701
7 | ARWRVFLWRGAS | 0.432 | 0.674
8 | ARWRVGEWRGAS | 0.677 | 0.684
9 | ARWRVGHWRGAS | 0.582 | 0.703
10 | ARWRVGLDRGAS | 0.665 | 0.687
11 | ARWRVGLWCGAS | 0.567 | 0.561
12 | ARWRVGLWNGAS | 0.634 | 0.664
13 | ARWRVGLWRGAL | 0.596 | 0.682
14 | ARWRVGLWRGAN | 0.121 | 0.687
15 | ARWRVGLWRGAP | 0.662 | 0.681
16 | ARWRVGLWRGASA | 0.665 | 0.672
17 | ARWRVGLWRGASV | 0.675 | 0.676
18 | ARWRVGLWRGAT | 0.447 | 0.683
19 | ARWRVGLWRGES | 0.681 | 0.695
20 | ARWRVGLWRGGS | 0.672 | 0.684
21 | ARWRVGLWRGVS | 0.122 | 0.689
22 | ARWRVGLWRRAS | 0.093 | 0.673
23 | ARWRVGLWWGAS | 0.556 | 0.679
24 | ARWRVHLWRGAS | 0.294 | 0.695
25 | ARWRVILWRGAS | 0.496 | 0.627
26 | ARWRYGLWRGAS | 0.489 | 0.678
27 | AWWRVGLWRGAS | 0.504 | 0.68

Row | Sequence | protein stability index (Saccharomyces cerevisiae [1]) | protein stability index (Saccharomyces cerevisiae [2])
28 | AYWRVGLWRGAS | 0.449 | 0.699
29 | CFSCGYKFRTNN | 0.188 | 0.682
30 | CKILRQKMNHQN | 0.165 | 0.675
31 | CTFCGYKFRTNN | 0.253 | 0.719
32 | CTSCGYCFRTNN | 0.261 | 0.7
33 | CTSCGYFFRTNN | 0.222 | 0.695
34 | CTSCGYIFRTNN | 0.233 | 0.706
35 | CTSCGYKARTNN | 0.623 | 0.686
36 | CTSCGYKFRTAN | 0.27 | 0.673
37 | CTSCGYKFRTNC | 0.224 | 0.699
38 | CTSCGYKFRTNP | 0.689 | 0.701
39 | CTSCGYKFWTNN | 0.299 | 0.75
40 | CTSCGYPFRTNN | 0.677 | 0.723
41 | CTSCVYKFRTNN | 0.164 | 0.675
42 | CTSCWYKFRTNN | 0.168 | 0.672
43 | ESLAASFWRVVG | 0.136 | 0.689
44 | FKHKKGQKQKIN | 0.123 | 0.586
45 | FSMAWTFRYWVN | 0.0458 | 0.456
46 | FSMFWTFRYWVN | 0.0733 | 0.403
47 | FSMRCTFRYWVN | 0.0458 | 0.522
48 | FSMRFTFRYWVN | 0.0475 | 0.501
49 | FSMRITFRYWVN | 0.0393 | 0.336
50 | FSMRRTFRYWVN | 0.102 | 0.616
51 | FSMRWTFAYWVN | 0.047 | 0.39
52 | FSMRWTFRAWVN | 0.104 | 0.425
53 | FSMRWTFRDWVN | 0.595 | 0.724
